Reference: the DeepSol protein solubility set

assay: soluble on expression in E. coli; label from the status in PepcDB or PDB records

Q: With “MRRDQKMTELNNQIRSLQEEHGKEKLLAAATKILGKKVPTDYVRVLDPLELQASLQQIDAAVQDVLEKGKAREEAYGEKASLIKQKVKLKTAVELKEAEAFMQIQGEGRNQFAYVNDQKVALTNDTLRDAYRLHYSKEERQQLTDVEQELASIDIKIYQTKDAWETAKESADLVKAKAYVQANLLKFLA” as the sequence, how does the “soluble on expression in E. coli” value read?
A: not soluble

Q: For “MRRRENMDVNKAIRTAVDTGKVILGSKRTIKFVKHGEGKLVVLAGNIPKDLEEDVKYYAKLSNIPVYQHKITSLELGAVCGKPFPVAALLVLDEGLSNIMELVEKKEGGE”, which “soluble on expression in E. coli” value is on record?
A: soluble

Q: With “MRRVQSNTLDVGIDVHLKNWSTAILSKHSVLRRFLQVDCEGPTLISYIVAKHLAHASRGTISPYRTNGSAYGGFAIYMYLLIKMR” as the sequence, how does the “soluble on expression in E. coli” value read?
A: not soluble

Q: Which “soluble on expression in E. coli” value does the source give for “MRSDVVARAMRLIADGTVDRDGVSGLAAQLGYTIRQLERLLQAVVGAGPLALARAQRMQTARVLIETTNLPFGDVAFAAGFSSIRQFNDTVRLACDGTPTALRARAAARFESATASAGTVSLRLPVRAPFAFEGVFGHLAATAVPGCEEVRDGAYRRTLRLPWGNGIVSLTPAPDHVRCLLVLDDFRDLMTATARCRRLLDLDADPEAIVEALGADPDLRAVVGKAPGQRIPRTVDEAEFAVRAVLAQQVSTKAASTHAGRLVAAYGRPVHDRHGALTHTFPSIEQLAEIDPGHLAVPKARQRTINALVASLADKSLVLDAGCDWQRARGQLLALPGVGPWTAEVIAMRGLGDPDAFPASDLGLRLAAKKLGLPAQRRALTVHSARWRPWRSYATQHLWTTLEHPVNQWPPQEKIALEHHHHHH” here?
A: not soluble

Q: With “MRSQPTVSVIVPARNEAGNIAAAVERLPELGAETELIFVEGHSRDQTWETIEQTVAEYQGPLKLLACRQTGKGKADAVRLGFDKASGDILMILDADLTVQPEDLGHFYRAIASGRGEFINGSRLVYPRSRLAMPGLNTLANRTFALIFSFLLGQPLKDTLCGTKVLWKTDYDRVAAGRKYFGDFDPFGDFDLLFGAAKLGLEIVEVPVRYQERSYGSSNIAHVREGLILARMCLYAAGKLKFPLEHHHHHH” as the sequence, how does the “soluble on expression in E. coli” value read?
A: not soluble

Q: With “MRSVKVYEETWPLHTPFVIARGSRSEAHVVVVELEEEDVKGIGECTPYPRYGESDASVMAQIMSIVPQLENGLTREALQKLLPAGAARNAVDSALWDLQARQRQQSLAGLLGVTLAPVFTTAQTVVIGTPEQMAASAAALWEKGATLLKIKLDARLISERMVAIRSAVPEATLIVDANESWRPEGLAARCQLLADLNVAMLEQPLPAQDDAALENFIHPLPICADESCHTRSSLKALTGRYDMINIKLDKTGGLTEALALATEAREQGFGLMLGCMLCTSRAISAALPLMPQVSFADLDGPTWLAVDVEPALRFTTGQLHL” as the sequence, how does the “soluble on expression in E. coli” value read?
A: not soluble

Q: Which “soluble on expression in E. coli” value does the source give for “MRSYFLIFILILLLEIREVWSWKAPYLRDRPRGLGLLQLPTGISDERSGPFLPGLYIAGNKVNQKPQTVPDVHLPGQPADFTGRSAFNPFTHMVSAVYAEDLSDGWGAGMAVNGVNGHGLNVRKNFDSYADVPLNLNDGMYQPFIAAATVGGEYDLSKMREVSGSLDLPIPGVNELFDLNARILVKTFLLHNSAIEFPLTLSDPNERAPYNFRYAVWAPDRHMAYGHVVPNVNPYVIGKDKIMERLMQNRLNPTMVG” here?
A: not soluble

Q: With “MRTFDLTAALGDRANQPEISRLLVAQLMTSNNEDTRKLRRAQEREQTQELNELAHRLAGMASLIHAHAVERACHQLEIACGESSVRKLADAVDDLVTALGELQCELHDWMTMTAPQGTAKS” as the sequence, how does the “soluble on expression in E. coli” value read?
A: not soluble

Q: For “MRTNAFEAVARYVYPSLRRRLVEILRERGLTQIQIAELLHITQSAVSRYLRMNRGALIEVEKFQDIDEKLKGLADTIVREKPDEYYIHGELVKIAVEMLGKGYVCSFHSKVDPEIDPKLCRICIETFGLEHHHHHH”, which “soluble on expression in E. coli” value is on record?
A: soluble

Q: With “MRVDIVPVGDVPAHVKRQASSSLRSVYDCEVVVASEQDVPTAAYDEARSQYRAAEFIDTATRATSGDKTIAITPHDLFYRRRNYVFGLAYLDGRGCVVSTYRLQTSSDGGFSNRSSSDVFDDRVRKEVVHELGHTLGLEHCDNNRCAMNFSPTVREVDRKEENLCGSCQRTVFLEHHHHHH” as the sequence, how does the “soluble on expression in E. coli” value read?
A: not soluble

Q: With “MRVIVTEYQPAWVEQFEEEAQALKQILKENCLKVEHIGSTSVPNLAAKPIIDFLVIVEEIEKVDLLQWEFERIGYEYMGEFGLSGRRYLRKGPIKRTHHVHIYQFDNTQEILRHLAFRNYLRENPAIATTYGTLKKQLAQAHPDSIDKYMDGKDAFIKKIEKEALKKYWE” as the sequence, how does the “soluble on expression in E. coli” value read?
A: soluble

Q: With “MRVKHFELLTDEGKTFTHVDLYGKYTILFFFPKAGTSGCTREAVEFSRENFEKAQVVGISRDSVEALKRFKEKNDLKVTLLSDPEGILHEFFNVLENGKTVRSTFLIDRWGFVRKEWRRVKVEGHVQEVKEALDRLIEEDLSLNKHIEWRRARRALKKDRVPREELELLIKAAHLAPSCMNNQPWRFVVVDEEELLKKIHEALPGGNYWMKNAPALIAVHSKKDFDCALPDNRDYFLFDTGLAVGNLLVQATQMGLVAHPVAGYDPVKVKEILKIPEDHVLITLIAVGYLGDESELSEKHRELERSERVRKELSEIVRWNL” as the sequence, how does the “soluble on expression in E. coli” value read?
A: soluble

Q: For “MRVVALVPGGIGDQILFFPTLDDLKRYYPNAQLDVVVEPRSKAAYRVSKSVNDILTFDYKDRNSLADWGNLVGTIRDREYDVVITVGQSWLVGLFLWLTGIPTRIGYQGKGRSFLTKTVPFKPSQYAAAVYHDLLAPIGITTPTPELAVNVPKPDIDWANSEQKRLGVNETGYVLIYGGSSWVSQPQALETIYPAENWQEIIQDFRQKQPDLPVVVIQGPDDEQFVRSLRDYSLDIKVTSPDNVGKLTAMIAGANLMLTTDSAPLHLSVAVQTYTIALFGSTDPVKLLPNSDKLLGIKSSTGRVADILPKAVLEKVWGGLEHHHHHH”, which “soluble on expression in E. coli” value is on record?
A: not soluble

Q: With “MRVYGRKILEEALRNNVPIKKVFFQKMKNPGSYFLSLVKEVEKRGIKYSFESEERLKNLSGTKKHQGVVFDIGEYRYSSVEEILEAKTPPLIVLLDQIQDPHNLGAIVRTSVGAGANGIIIPKDKSVKVTETVVKVSAGTVFRARIAVVTNLARTIEELKEKGVWTYASDIDGTPIYEEDFTFPTAFVFGNEGEGIRRLVREKCDRVVTIPMENDIDSLNVSVSVGVVLFEAVRQRRMKGAG” as the sequence, how does the “soluble on expression in E. coli” value read?
A: soluble

Q: With “MRWKKINITINNVEMILVAAIIIDVPPVVDLCVKTMIHNINSTNCIRMFNFSKRYGIKKLYNASMSEIINNITAVTSDPEFGKLSKDELTTILSHENVNVNHEDVTL” as the sequence, how does the “soluble on expression in E. coli” value read?
A: not soluble

Q: For “MRWRADFLSAWAEALLRKAGADEPSAKAVAWALVEADLRGVGSHGLLRLPVYVRRLEAGLVNPSPTLPLEERGPVALLDGEHGFGPRVALKAVEAAQSLARRHGLGAVGVRRSTHFGMAGLYAEKLAREGFVAWVTTNAEPDVVPFGGREKALGTNPLAFAAPAPQGILVADLATSESAMGKVFLAREKGERIPPSWGVDREGSPTDDPHRVYALRPLGGPKGYALALLVEVLSGVLTGAGVAHGIGRMYDEWDRPQDVGHFLLALDPGRFVGKEAFLERMGALWQALKATPPAPGHEEVFLPGELEARRRERALAEGMALPERVVAELKALGERYGVPWRDDA”, which “soluble on expression in E. coli” value is on record?
A: soluble

Q: For “MRYNEKELQALSRQPAEMAAELGMRGPKKGSVLKRRLVKLVVNFLFYFRTDEAEPVGALLLERCRVVREEPGTFSISFIEDPERKYHFECSSEEQCQEWMEALRRASYEFMRRSLIFYRNEIRKVTGKDPLEQFGISEEARFQLSGLQA”, which “soluble on expression in E. coli” value is on record?
A: soluble

Q: For “MRYSLKQLAVFDAVADCGSVSQAADKLALTQSATSMSLAQLEKMLGRPLFERQGKQMALTHWGMWLRPKAKRLLQDAQQIEMGFYDQHLLSGEIRLGASQTPAEHLVPDLISIIDSDFPEIRISLGVKSTKGVIEGVLDYKYDLGIIEGRCDDNRIYQEVWCRDHLTIVASAHHPFAKRESVSLAQLEQAKWVLREQGAGTRNIFDSVIHPLIPDLDVWREYEHVPVLRTLVANGPYLTCLPYLDVERFIESGLLVALNVPELNMERTLSFIWRADMEENPLAECIKREGLRMMKGKPSIL”, which “soluble on expression in E. coli” value is on record?
A: not soluble

Q: Which “soluble on expression in E. coli” value does the source give for “MSAAEGAVVFSEEKEALVLKSWAIMKKDSANLGLRFFLKIFEIAPSARQMFPFLRDSDVPLETNPKLKTHAVSVFVMTCEAAAQLRKAGKITVRETTLKRLGGTHLKYGVADGHFEVTRFALLETIKEALPADMWGPEMRNAWGEAYDQLVAAIKQEMKPAE” here?
A: soluble

Q: For “MSAAPGTISPPARELKTSAICGYLHRIEVRSIGLITRRRYWFALCDSTPYLYWYKDSDDIKCIGRVSLSGAAFTYDPREKGRFEIHSNNEVIALECSSDKQRNEWMKALQSTRKRSWKATKSKSDSSLDISSLTGRNSSSVLEECSSPSPVPPPRSPKPKKRTQFLTEEETDAETSSDVPHSSEETAEVVEDTDNTKIPAEGSATEWYLNPNGQLNERSLQMPKTIESPETVLKRLADQSIEAPFRAIRRNLSTWSRSRQNTSDEPVVGSRKGTVSSVDLTPEEKVIELSDKVSSLEEVVDSLRAALLLAQRNNEALQKIEDMGDNKEEMREYILEKERQVTELHISNSMNARRVRDLEDQNVRLEDTINDLQQSVEAFRESLRTKEELILRMCEEENREDLLGSISERSSNIPADANGLVSDVEVPEGILVDVSSVDCEEATRKVLDEENVRDIGELQDLVEGYRTQNQFLNAEIVQLHAITQSLEDREKKLIRQNFDLEACYYQLKSRYLMVLNHFKSPTKPGKIMEPGVLKELLEESARTPRESQQNLTDQLGFYKKDDFSESDDLLDTATFYMKKAGDVVEATKLEQSEEYMKWLQSWDAFLVNNTVSRQTAIMSSPDLKTLIRTGVPPAYRGRVWKIIVTHWVKDKQAELGNGYYQSMLRKAGTKKQDGSYDAAIKQIDLDLARTLPTNKLFDEPDSANIEKLRNVLYAFRYHNSHVGYCQGLNRLAAIALLNLDEQDSFWFLVACVEHLQPEGYYTSSLIGAVADQKVLRDLVAEKLPKLAAHLRALEVDLSLFALSWFLTCFVDVLPHSIYLTIFDAFLYEGNKVLFRFALALFKICEPHVLQCKTIGTVHQCLSKAQEHIIDFKSLAQVAFNELNPFPQKTIETKRQLYLTQLKDTGHCM”, which “soluble on expression in E. coli” value is on record?
A: not soluble

Q: For “MSAEKSSADTAKKTLTIYSTMSTDSERDTFRKLAAAFEKEHSDIHVSLHFPGNDYENMMRVRMAANDLPDLFDTHGWGKIRYGEYTADLRDMKWTQDLDPNLNSILKNKSGKVYAYPINQAKDGLAYNRNILDRYGIAPPETMDDFIKALRTIKEKSKGSIVPFWFAGYDKSSFAQYYDQFATPLLITDPAHNEKKQLINGTFQWSKFTYLSEILKQMQKEKLINIDAVTAKKSQLIELMAQNKIAFTMQGGTLGQDVAQINPNVKVGIIPTPAIHPGDDPIWIGGERYTLAAWKDSPQLKEAKDFIAFMARPANAKQMAEATSLPSGLTNVKADIFYANDYEYYQDVKVEPYFDRLYLPNGMWDVLGTVGQELAADILAPQDISQKLGREYKRLREQSETQGAENNELEHHHHHH”, which “soluble on expression in E. coli” value is on record?
A: soluble

Q: For “MSAEVQESSGKRGKGKQKKMTVRVDFTPMVDMNMLLITFFMLCTTLSKPQTMEISMPSNDKDITEQQKSMVKASQAITLLLGADNKLYYYEGEPNYKDYTSLKETSYGASGLRAVLLQKNAAAVNQVRALKQQKLDLKITDDEYKKKVSEIKSGKNTPTVIIKATDDASYMNLIDALDEMQICNIGKYVITDIAEADEFLIKNYDAKGELSQNLADK”, which “soluble on expression in E. coli” value is on record?
A: not soluble

Q: With “MSAFQPTIKRRESTKIYVGNVPIGGDAPIAVQSMTNTRTTDVEATVAQIKSLERVGADIVRVSVPTMDAAEAFKQIKQQVNVPLVADIHFDYRIALKVAEYGVDCLRINPGNIGREDRVRAVVDCARDKNIPIRIGVNAGSLEKDLQEKYGEPTPEALLESALRHVEILDRLNFDQFKVSVKASDVFLAVESYRLLAKAIKQPLHLGITEAGGARAGAVKSAVGLGMLLAEGIGDTLRVSLAADPVEEIKVGFDILKSLRIRSRGINFIACPTCSRQEFDVIGTVNALEQRLEDIITPMDVSIIGCVVNGPGEALVSDLGVTGGNKKSGYYLDGERQKERFDNEDIVNQLEAKIRAKVARQDPKNRII” as the sequence, how does the “soluble on expression in E. coli” value read?
A: not soluble
